System: A549 ALK+Luciferase+ cells
Assay: Adoptive transfer of CER T cells with ALK inhibitor in A549 ALK+ xenograft
Type: in vivo, immunodeficient (NSG) mice
Details: Alectinib 15 mg/kg intraperitoneally + 10e6 CER-transduced human T cells, NSG mice
Description: The combination of CER therapy and ALK inhibitor therapy was also evaluated in vivo. […] A549 ALK+Luciferase^+ cells were engrafted into immunodeficient (NSG) mice 21 days prior to initiation of study and evaluated for engraftment by bioluminescent emission and tumor volume seven days later. […] Animals received 10 μg of systemic IL-2 every 24 hours×3 days following cell infusion and then monitored for tumor progression and cell expansion and persistence thereafter.
Peripheral blood sample was stained with anti-human CD45-APC-conjugated antibody 8 days following cell infusion. Each FACS plot indicates a single animal. A bar graph depicting frequency of human CD45+ cells/μL of peripheral blood at days 4, 8, 16, and 25 post-adoptive transfer of CER122+ T cells (FIG. 77B). Peripheral blood was obtained by retro-orbital bleeding and examined for evidence of T cell engraftment by FACS. The frequency of human-CD45 cells/μL of peripheral blood was determined by FACs using TRUCOUNT (BD Biosciences) beads.

B1: CER122: Tim4 binding and transmembrane domains, TLR2 primary and DAP12 secondary signaling domains; SEQ ID NO:149 (protein)
chain: MSKGLLLLWLVTELWWLYLTPAASEDTIIGFLGQPVTLPCHYLSWSQSRNSMCWGKGSCPNSKCNAELLRTDGTRIISRKSTKYTLLGKVQFGEVSLTISNTNRGDSGVYCCRIEVPGWFNDVKKNVRLELRRATTTKKPTTTTRPTTTPYVTTTTPELLPTTVMTTSVLPTTTPPQTLATTAFSTAVTTCPSTTPGSFSQETTKGSAFTTESETLPASNHSQRSMMTISTDIAVLRPTGSNPGILPSTSQLTTQKTTLTTSESLQKTTKSHQINSRQTILIIACCVGFVLMVLLFLAFLHRFHGLWYMKMMWAWLQAKRKPRKAPSRNICYDAFVSYSERDAYWVENLMVQELENFNPPFKLCLHKRDFIPGKWIIDNIIDSIEKSHKTVFVLSENFVKSEWCKYELDFSHFRLFDENNDAAILILLEPIEKKAIPQRFCKLRKIMNTKTYLEWPMDEAQREGFWVNLRAAIKSYFLGRLVPRGRGAAEAATRKQRITETESPYQELQGQRSDVYSDLNTQRPYYK
modifications: CER122 protein
In the case of B1, the “anti-tumor response (tumor volume, bioluminescence)” value is reported as “enhanced anti-tumor response to ALK+NSCLC in vivo”.

Reference: patent publication US11708423B2, “Chimeric engulfment receptor molecules and methods of use” (CERO THERAPEUTICS, INC., priority 2017, dated 2023)
